# Assay results as given in the nanobody polyreactivity screen of Harvey et al. (2022).
# Test: yeast display, Sf9 membrane polyspecificity reagent, FACS + sequencing; frameworks hold sequencing errors
# Summary of the method: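 Nanobodies came from a synthetic yeast display library in Saccharomyces cerevisiae BJ5465, induced with galactose for 36–48 hours and stained for 1 hour at 4 °C with 10% biotinylated, detergent-solubilized Sf9 membrane reagent. Cells were enriched on streptavidin microbeads and then FACS-sorted, with low and high (top ~1%) gates set on anti-HA fluorescence for expression and streptavidin fluorescence for reagent binding. Each polyreactivity label reflects the gate a clone came from. Genes were amplified by colony PCR, sequenced by MiSeq 2 × 250 and filtered by CDR length.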
row,Sequence,polyreactivity (PSR sort gate)
1,QVQLVESGGGLVQAGGSLRLSCAASGYIFYFNAMGWYRQAPGKERELVAVISDRDDSTYYADSVKGRFTISRDNAKNTVYLQMNSLKPEDTAVYYCAADGDTYVDDPYDYWGQGTQVTVSS,low polyreactivity
2,QVQLVESGGGLVQAGGSLRLSCAASGYIFYGYAMGWYRQAPGKERELVAAITGDGASTNYADSVKGRFTISRDNAKNTVYLQMNSLKPEDTAVYYCNAGRESDDVYEGSQRIGQFDYWGQGTQVTVSS,low polyreactivity
3,QVQLVESGGGLVQAGGSLRLSCAASGYIFYPYTMGWYRPAPGKERELVAAITRSGSSTYYADSVKGRFTISRDNAKNTVYLQMNSLKPEDTAVYYCAAQRVNWYLSPSLYYYWGQGTQVTVSS,high polyreactivity
4,QVQLVESGGGLVQAGGSLRLSCAASGYIFYRNAMGWYRQAPGKEREFVAAISSSGVSTYYADSVKGRFTISRDNAKNTVYLQMNSLKPEDTAVYYCAASYLTWKRRYDYWGQGTQVTVSS,high polyreactivity
5,QVQLVESGGGLVQAGGSLRLSCAASGYIFYYNTMGWYRQAPGKERELVAAISSAGSTNYADSVKGRFTISRDNAKNTVYLQMNSRKPEDTAVYYCAARTRFSYRRNSYGYWGQGTQVNVSS,high polyreactivity
6,QVQLVESGGGLVQAGGSLRLSCAASGYIIGGNAMGWYRQAPAKERELVAVISSRGGRTYYADSVKGRFTISRDNAKNTVSLQMNSQKPEDTAVYDCASIRYRGARGSGDKIFYYWGQGTQVTVSS,high polyreactivity
7,QVQLVESGGGLVQAGGSLRLSCAASGYILWNAMGCYRQAPGKDRELVAAISSGGSTNYADSVKGRFTISRDNAKNTVYLQMNSLKPEDTAVYYCNTDRFWPSDYWGQGTQVTVSS,low polyreactivity
8,QVQLVESGGGLVQAGGSLRLSCAASGYILYPYAMGWYRQAPGKERELVAAIRQRGGSTYYADSVKGRFTISRDNAKNTVYLQMNSLKPEDTAVYYCAAYLSPKRALTRGYGYWGQGTQVTVSS,high polyreactivity
9,QVQLVESGGGLVQAGGSLRLSCAASGYIYIVYSMGWYRQAPVKERELVAAISSGGITDYADSVKGRFTISRDNAKNTVYLQMNSLKPEDTAVYYWGQGTQVTVSA,low polyreactivity
10,QVQLVESGGGLVQAGGSLRLSCAASGYNFGVYAMGWYRQAPRKERELVARITSGGSTNYADSVKGRFTISRDNAKITVYLQMNSLKPEDTAVYYCAAAVGNTDREYDYWGQGTQVTVSS,low polyreactivity
11,QVQLVESGGGLVQAGGSLRLSCAASGYNFVRNAMGWYRQAPGKERELVAAISGSGGSTYYADSVKGRFTISRDNAKNTVYLQMNSLKPEDTAVYYCAADYATVTWRGIAYDYWGQGTQVTVSS,low polyreactivity
12,QVQLVESGGGLVQAGGSLRLSCAASGYSFYINVMGWYIQAPGKERELLAAISISGDSTYYSDSVKGRFTISRDNAKNTVYLQMNSLKPDDTALYYCAADTVSSWYYPLEDEYWGQGTQVTVSS,high polyreactivity
13,QVQLVESGGGLVQAGGSLRLSCAASGYTFDAYAMGWYRQAHGKERELVAAINYSGGSTYADSVKGRFTISRDNAKNTVYLQMNSLKPEDTAVYYCATRLYGYWPNGFDYWGQGTQVTVSS,low polyreactivity
14,QVQLVESGGGLVQAGGSLRLSCAASGYTFDTNALGWYRLAPGTEREFVAAISSTGGTYYADSVKGRFTISRDNAKNTVYLQMNSLKPEDTAVYYCAATFIQVVVIVQLYDYDYWRQGTQVTVSS,low polyreactivity
15,QVQLVESGGGLVQAGGSLRLSCAASGYTFFYYAMGWSRQAPGKERELVAIDLNGGSTYYADSVKGRFTISRDNAKNTVYLQMNSLKPEDTAVSSCAATRPWYGDVGYLEDYWGQGTQVTVSS,low polyreactivity
16,QVQLVESGGGLVQAGGSLRLSCAASGYTFGEYAMGWYRQAPGKERELVATISLSDGSTNYADSVKGRFTISRDNAKNTVYLQMNSLKPEDTAVYYCATETQQALYGSVLKYNYWGQGTQVTVSS,low polyreactivity
17,QVQLVESGGGLVQAGGSLRLSCAASGYTFGGNAMGWYRQAPGKERELVAAISNTGGRTNYADSVKGRFTISRDNAKNTVYLQMNSLKPEDTAVSYCAKSVYYRDRYGGDYWGQGTQVTVSS,low polyreactivity
